Earlier results, collected in paper PMC8711257.
pKd: −log10 of the molar value.

Key:
MET (Homo sapiens) = MET (Homo sapiens) (UniProt P08581)
MET ECD (Homo sapiens) = MET ECD (Homo sapiens) (UniProt P08581)

Substance: HGF NK1 NK1 (from UniProt P14210)
- pKd (MET (Homo sapiens)): 8.52
- pKd (MET ECD (Homo sapiens)): 6.82
